Assay [1] deals with T1, ESCRT-I complex (TSG101, VPS28, VPS37B, MVB12A), Cy3-labeled (human, UniProt Q99816 1-390; Q9UK41 1-221; Q9H9H4 1-285; Q96EY5 1-273).
T1 construct: TSG101, subunit of human ESCRT-I; VPS28, subunit of human ESCRT-I; VPS37B, subunit of human ESCRT-I; MVB12A, subunit of human ESCRT-I; Labeled with sulpho-Cy3 maleimide on native surface-exposed cysteines; It calls human ESCRT-I a soluble heterotetramer; also called ESCRT-I (Cy3); source: HEK293 cells, purified (StrepTactin Sepharose, gel filtration); copies: + + +
T1 sequence (Q99816 whole entry, chain 1 of 4, other chains not shown): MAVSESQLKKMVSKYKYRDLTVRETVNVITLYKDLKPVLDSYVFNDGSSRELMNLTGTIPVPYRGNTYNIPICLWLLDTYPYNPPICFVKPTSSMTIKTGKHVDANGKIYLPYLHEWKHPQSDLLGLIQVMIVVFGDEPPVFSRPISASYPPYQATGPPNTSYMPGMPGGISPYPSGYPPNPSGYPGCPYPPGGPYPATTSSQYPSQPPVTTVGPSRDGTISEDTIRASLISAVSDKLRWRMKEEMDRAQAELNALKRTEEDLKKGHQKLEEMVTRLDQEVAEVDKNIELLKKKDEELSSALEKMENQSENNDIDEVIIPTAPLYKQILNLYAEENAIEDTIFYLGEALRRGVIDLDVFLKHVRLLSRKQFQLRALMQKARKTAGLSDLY
T1 sequence (Q9UK41 whole entry, chain 2 of 4, other chains not shown): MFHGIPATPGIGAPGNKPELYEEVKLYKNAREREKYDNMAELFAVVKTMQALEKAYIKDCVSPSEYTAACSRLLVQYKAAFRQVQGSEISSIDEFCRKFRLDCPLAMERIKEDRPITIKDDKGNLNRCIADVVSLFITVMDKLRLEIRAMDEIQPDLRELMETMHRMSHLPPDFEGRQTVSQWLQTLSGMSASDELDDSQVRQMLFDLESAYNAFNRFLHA
T1 sequence (Q9H9H4 whole entry, chain 3 of 4, other chains not shown): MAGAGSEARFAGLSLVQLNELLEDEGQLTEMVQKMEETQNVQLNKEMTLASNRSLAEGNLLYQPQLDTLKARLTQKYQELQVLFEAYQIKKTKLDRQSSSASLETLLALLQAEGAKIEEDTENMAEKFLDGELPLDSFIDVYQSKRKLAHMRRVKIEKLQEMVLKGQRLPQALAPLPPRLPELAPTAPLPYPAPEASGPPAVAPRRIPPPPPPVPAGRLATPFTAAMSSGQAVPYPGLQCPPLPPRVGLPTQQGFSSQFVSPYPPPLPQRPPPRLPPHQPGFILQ
Put plainly: recruitment to giant unilamellar vesicles (GUVs), confocal fluorescence microscopy; ESCRT-I/II pathway: ALG-2 200 nM, ESCRT-I (Cy3) 50 nM, with or without ESCRT-II 200 nM and CHMP6 (Atto 488) 400 nM, incubated 15 min in reaction buffer, then 30% DOPS GUVs added and imaged after 15 min; ESCRT-I kept at a concentration at which it did not bind GUVs on its own. The settings on record: both partners purified.

The target in assay [2] is T2, ALIX, full-length, Cy3-labeled (human, UniProt Q8WUM4 1-868, sulpho-Cy3 maleimide on native surface-exposed cysteines).
T2 construct: ALIX (PDCD6IP), ESCRT accessory protein with Bro1 domain, V domain and proline-rich domain; also called ALIX (Cy3); source: HEK293 cells, purified (StrepTactin Sepharose, gel filtration)
T2 sequence (looked up): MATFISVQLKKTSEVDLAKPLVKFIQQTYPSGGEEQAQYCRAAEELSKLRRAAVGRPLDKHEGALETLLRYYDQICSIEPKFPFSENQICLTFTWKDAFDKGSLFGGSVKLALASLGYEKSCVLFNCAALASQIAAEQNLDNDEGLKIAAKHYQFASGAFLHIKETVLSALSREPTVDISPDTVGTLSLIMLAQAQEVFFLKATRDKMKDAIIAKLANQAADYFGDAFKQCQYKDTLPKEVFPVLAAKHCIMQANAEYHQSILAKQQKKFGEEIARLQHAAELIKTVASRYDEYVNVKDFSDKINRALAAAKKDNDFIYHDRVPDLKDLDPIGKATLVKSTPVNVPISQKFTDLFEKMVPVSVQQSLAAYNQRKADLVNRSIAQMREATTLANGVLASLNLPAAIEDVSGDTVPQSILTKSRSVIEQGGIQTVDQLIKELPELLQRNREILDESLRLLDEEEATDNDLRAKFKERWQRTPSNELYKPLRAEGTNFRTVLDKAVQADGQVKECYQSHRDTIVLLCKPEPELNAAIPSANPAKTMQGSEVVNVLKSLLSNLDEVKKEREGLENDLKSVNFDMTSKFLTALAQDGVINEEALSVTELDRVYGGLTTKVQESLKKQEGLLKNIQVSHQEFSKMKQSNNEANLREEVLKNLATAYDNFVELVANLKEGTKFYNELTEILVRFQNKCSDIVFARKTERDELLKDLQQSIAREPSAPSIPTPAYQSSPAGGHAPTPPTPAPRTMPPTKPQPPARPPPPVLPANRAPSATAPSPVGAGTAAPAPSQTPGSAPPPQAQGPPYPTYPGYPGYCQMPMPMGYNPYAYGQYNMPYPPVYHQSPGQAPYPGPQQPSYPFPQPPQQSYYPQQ
Nature of the assay: recruitment to giant unilamellar vesicles (GUVs), confocal fluorescence microscopy; ALIX pathway: ALG-2 200 nM, ALIX 100 nM, with or without CHMP4B 10 nM, incubated 15 min in reaction buffer (25 mM Hepes pH 7.4, 125 mM NaCl, 0.2 mM TCEP), then added to 30% DOPS GUVs and imaged after 15 min at room temperature; read-out: puncta on the GUV periphery and their colocalization. The settings on record: both partners purified.

B1: ALG-2, fluorescently labeled (Atto 488) via A78C (natural protein, UniProt O75340 1-191, looked up)
chain: MAAYSYRPGPGAGPGPAAGAALPDQSFLWNVFQRVDKDRSGVISDTELQQALSNGTWTPFNPVTVRSIISMFDRENKCGVNFSEFTGVWKYITDWQNVFRTYDRDNSGMIDKNELKQALSGFGYRLSDQFHDILIRKFDRQGRGQIAFDDFIQGCIVLQRLTDIFRRYDTDQDGWIQVSYEQYLSMVFSIV
modifications: Atto 488 maleimide on the cysteine of A78C (25% labeling efficiency)
notes: also called ALG-2 (Atto 488); labeled ALG-2; source: E. coli BL21 (DE3), purified (Ni-NTA, gel filtration, anion exchange, gel filtration)
As to B1, the binding result in assay [1] and in assay [2] was “binds” in each case.
